{"source": "paper PMC10450195", "about": "“Histone divergence in trypanosomes results in unique alterations to nucleosome structure” (Nucleic Acids Research, 2023)", "binders": {"B1": {"name": "Trypanosoma brucei histone H2B (natural protein, Trypanosoma brucei brucei)", "chain": "ATPKSTPAKTRKEAKKTRRQRKRTWNVYVSRSLRSINSQMSMTSRTMKIVNSFVNDLFERIAAEAATIVRVNRKRTLGARELQTAVRLVLPADLAKHAMAEGTKAVSHASS", "notes": "also called Tb H2B"}, "B2": {"name": "Trypanosoma brucei histone H4 (natural protein)", "chain": "not shown", "notes": "also called Tb H4"}}, "key": {"[1]": {"molecular_target": "T1, Trypanosoma brucei histone H2A (Trypanosoma brucei brucei, UniProt Q57YA3 2-134)", "T1 construct": "also called Tb H2A", "T1 sequence": "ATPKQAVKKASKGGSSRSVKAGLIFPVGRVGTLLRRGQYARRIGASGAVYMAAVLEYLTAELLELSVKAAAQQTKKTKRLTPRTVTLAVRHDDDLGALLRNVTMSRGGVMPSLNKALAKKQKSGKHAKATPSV", "assay": "cryo-EM structure", "conditions": "both partners purified"}, "[2]": {"molecular_target": "B1", "assay": "cryo-EM structure", "conditions": "both partners purified"}}, "data": [{"binder": "B1", "values": [{"measurement": "binding result", "setting": "[1]", "result": "binds"}]}, {"binder": "B2", "values": [{"measurement": "binding result", "setting": "[2]", "result": "binds"}]}]}
